The results in this text go back to CN116041496A.

This experiment addresses H7N9亚型禽流感病毒血凝素(HA)，野生型病毒上 (H7N9亚型禽流感病毒). Briefly: cell-based or functional assay.

B1: H7N9-NeuAb (antibody, V domains shown)
VH: QVQLQQPRAELVMPGASVRMSCQASGYTFTDFWIHWVKQRPGQGLEWIGAIDTSDSYTTYNQNFRGKASLTVDESSSTAYMQLSSLTSEDSAVYYCARLDDGFYNYAMDYWGQGTSVTVSS
VL: NIMMTQSPSSLAVSAGEKVTLNCKSSQSVLNSSNQKNYLAWYQQRPGQSPKLLIYWASTREAGVPDRFTGSGSGTDFTLTISSVKAEDLAVYYCHQYLSSYTFGGGTKLKIK
As to B1, the HI 终点浓度 turned out to be 1.5 µg/mL, the HI效价 amounted to 512, the 中和 终点浓度 stood at 0.15 µg/mL and the 中和效价 is 5120.
